{"source": "patent US20180346569A1", "about": "(LYVGEN BIOPHARMA, published 2018)", "key": {"[1]": {"molecular_target": "T1, rhesus monkey PD-1-His (Sino Biological Inc. Cat#90305-KO8H-100) (rhesus monkey, UniProt B0LAJ2 25-170)", "T1 construct": "Bought protein; also called Rehsus monkey PD-1", "T1 sequence (B0LAJ2 entry or part of it limits assumed)": "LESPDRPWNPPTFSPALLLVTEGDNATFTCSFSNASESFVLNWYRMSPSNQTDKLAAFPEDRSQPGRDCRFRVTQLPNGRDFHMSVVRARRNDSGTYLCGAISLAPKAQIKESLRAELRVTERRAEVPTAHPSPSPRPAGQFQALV", "assay": "ELISA, antibody coated at 1 ug/ml, PD-1-His titrated, detected with anti-His-HRP", "method": "(§1) The PD-1 antibody sample was diluted in PBS to 1 ug/ml and was coated in an ELISA plate (Costar, Cat#3590, high binding) 100 ul/well, 4° C. overnight. The plate was decanted and blocking solution (eBioscience, ELISA/ELISPOT Diluent, Cat#00-4202-55) was added 200 ul/well. After 1 hour incubation at room temperature, the plate was washed with PBST three times. […] The plate was incubated 1 hour at room temperature and then washed four times with PBST. Anti-His-HRP (Genscript Cat#A00612) at 1:2000 dilution was added to the plate 100 ul/well. The plate was incubated 1 hour at room temperature followed by washing with PBST four times. The TMB substrate solution was added 100 ul/well. Let the color develop for 15 minutes and add 50 ul/well 1M H2SO4 to terminate the reaction. Absorbance at 450 nm was determined in FlexStation 3 ELISA reader."}, "[2]": {"molecular_target": "T2, Human PD-1 (captured on an anti-His IgG Biacore chip) (human, UniProt Q15116 25-167)", "T2 construct": "It may be the same Sino Biological PD-1-His protein as m3; also called PD-1 antigen; not shown: His tag implied by capture on anti-His IgG", "T2 sequence (Q15116 25-167)": "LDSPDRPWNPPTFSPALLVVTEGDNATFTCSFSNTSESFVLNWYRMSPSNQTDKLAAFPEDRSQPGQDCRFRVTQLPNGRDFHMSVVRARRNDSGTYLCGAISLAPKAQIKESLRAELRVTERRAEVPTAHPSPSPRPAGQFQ", "assay": "SPR (Biacore), human PD-1 captured on anti-His IgG chip, SSI-361 injected at 3.125-50 nM, 1:1 model", "method": "Flow cells of a Series S CMS sensor chip (GE Healthcare Life Sciences) were activated with freshly mixed 50 mmol/L NHS and 200 mmol/L EDC for 360 seconds (10 μL/min). Then, anti-His IgGs, in 10 mmol/L NaAC (pH 5.0) was injected onto the activated flow cell (10 μL/min) for 300 seconds (10 μL/min) with HBS-EP+(10 mM HEPES, 150 mM NaCl, 3 mM EDTA and 0.05% P20, pH 7.4) as the running buffer. The remaining active coupling sites were blocked with a 420 second injection of 1 mol/L ethanolamine (10 μL/min). This procedure was repeated for 2 times to immobilized protein on 2 flow cells individually. Low flow rate overnight was maintained for the equilibrium of the immobilized proteins. Human PD-1 was captured on a flow cell 2 (10 μL/min). […] Flow cell 1 without captured antigen was used as reference flow cell. To remove the tested antibody and antigen from the surface, 10 mM glycine-HCl pH 1.5 was injected for 60s (10 μL/min, flow cell 1-2). The above procedures were repeated for each concentration of serially diluted tested antibody. The KD value (Table 1) was evaluated using Biacore X100 evaluation software 2.0 with 1:1 interaction binding model. Flow cell 1 was used as reference flow cell for data subtraction."}, "[3]": {"molecular_target": "T3, Cyno PD-1-Fc tag (Sino Biological Inc. Cat#90311-CO2H) (cynomolgus monkey, UniProt B0LAJ3 25-170)", "T3 construct": "Bought Fc fusion; also called PD-1 of cynomolgus monkey; Cynomolgus monkey PD-1", "T3 sequence (B0LAJ3 entry or part of it limits assumed)": "as the sequence (B0LAJ2 entry or part of it limits assumed) above, with P10A, R67Q, Q75R counted along it", "assay": "ELISA, Cyno PD-1-Fc coated at 2 ug/ml, antibody titrated, detected with anti-human Ig kappa-HRP", "method": "To determine binding to PD-1 of cynomolgus monkey, Cyno PD-1—Fc tag (Sino Biological Inc. Cat#90311-CO2H) was diluted in PBS to 2 ug/ml, and 100 ul/well was used to coat an ELISA plate (Costar, Cat#3590, high binding), 4° C. overnight. The plate was decanted and blocking solution (eBioscience, ELISA/ELISPOT Diluent, Cat#00-4202-55) was added, 200 ul/well. After 1 hour incubation at room temperature, the plate was washed with PBST three times. The testing PD-1 antibody was diluted in blocking buffer to 0, 0.001, 0.01, 0.1, 1.10 ug/ml and added to the plate, 100 ul/well. The plate was incubated 1 hour at room temperature and then washed four times with PBST. Anti-Hu IgG-HRP (goat-anti-human Ig kappa-HRP, Millipore, Cat# AP502P) at 1:4000 dilution was added to the plate, 100 ul/well. The plate was incubated 1 hour at room temperature followed by washing with PBST four times. The TMB substrate solution was added 100 ul/well. The color developed for 15 minutes and 50 ul/well of 1M H2SO4 was added to terminate the reaction. Absorbance at 450 nm was determined in FlexStation 3 ELISA reader."}, "[4]": {"molecular_target": "T4, Human PD-1-His tag protein (Sino Biological Inc. Cat#10377-H08H-100) (human, UniProt Q15116 25-167)", "T4 construct": "Bought protein; not shown: His tag", "T4 sequence (Q15116 25-167 limits assumed)": "as the sequence (Q15116 25-167) above", "assay": "ELISA, antibody coated at 1 ug/ml, PD-1-His titrated, detected with anti-His-HRP; antibody coated on the plate, human PD-1-His titrated", "method": "as §1"}, "[5]": {"molecular_target": "T4, Human PD-1-His tag protein (Sino …)", "assay": "ELISA, antibody coated at 1 ug/ml, human PD-1-His titrated (the concentration axis is that of PD-1-His), detected with anti-His-HRP", "method": "as §1"}, "[6]": {"molecular_target": "T1, rhesus monkey PD-1-His (Sino Biological …)", "assay": "ELISA, antibody coated at 1 ug/ml, rhesus monkey PD-1-His titrated (the concentration axis is that of PD-1-His), detected with anti-His-HRP", "method": "as §1"}}}
{"binder": "SSI-361 (humanized SHB-617 in human IgG4 S228P/kappa) (antibody, V domains shown, Full human IgG4 (hinge S228P, EU numbering)/kappa, expressed in HEK293 or CHO cells; also called PD-1 Ab01) VH: QVTLKESGPALVKPTQTLTLTCTFSGFSLSTSGTCVSWIRQPPGKALEWLATICWEDSKGYNPSLKSRLTISKDTSKNQAVLTMTNMDPVDTATYYCARREDSGYFWFPYWGQGTLVTVSS VL: NIQMTQSPSSLSASVGDRVTITCKAGQNVNNYLAWYQQKPGKAPKVLIFNANSLQTGVPSRFSGSGSGTDFTLTISSLQPEDFATYYCQQYNSWTTFGGGTKVEIKR", "values": [{"measurement": "EC50", "setting": "[1]", "value": 0.39, "unit": "nM"}, {"measurement": "Kd", "setting": "[2]", "value": 5.07, "unit": "nM"}, {"measurement": "koff", "setting": "[2]", "value": 0.00117, "unit": "s⁻¹"}, {"measurement": "kon", "setting": "[2]", "value": 230000, "unit": "M⁻¹ s⁻¹"}, {"measurement": "EC50", "setting": "[3]", "value": 0.08, "unit": "nM"}, {"measurement": "EC50 (read off the curve)", "setting": "[3]", "value": "~0.01", "unit": "µg/mL"}, {"measurement": "EC50", "setting": "[4]", "value": 0.33, "unit": "nM"}, {"measurement": "EC50 (read off the curve)", "setting": "[5]", "value": "~0.03", "unit": "µg/mL"}, {"measurement": "EC50 (read off the curve)", "setting": "[6]", "value": "~0.05", "unit": "µg/mL"}]}
